Here are results for eleven sequences from the Immune Epitope Database (IEDB).

Targets include HLA-A*11:01; HLA-A*03:01; HLA-B*07:02.
What all share (assay): IEDB peptide-MHC binding, purified MHC/competitive/radioactivity; ≥ and ≤ were set here for values at or beyond the usual limits of such assays
Holding throughout (conditions): source organism: Homo sapiens

For orientation: IC50 means the concentration that gives 50% inhibition. AVVLASLIYR: the IC50 with HLA-A*11:01 was 0.0035 µM.

For the sequence GTQCALTRR, the IC50 with HLA-A*11:01 was 0.0313 µM.

In the case of HTMEVTVYHR, the IC50 in the assay with HLA-A*03:01 was determined as 0.179 µM.

Take LIGCWYCRRR: the IC50 with HLA-A*03:01 was 0.179 µM. Consider LPHSSSHWL, for which the IC50 with HLA-B*07:02 turned out to be 0.0172 µM. With QTSAGHFPR, in the assay with HLA-A*11:01, the IC50 came out at 0.0161 µM. As for SIFEQWLRR, the IC50 in the assay with HLA-A*03:01 is 0.0455 µM; with HLA-A*11:01, 0.0046 µM. For the sequence SSSHWLRLPR, in the assay with HLA-A*11:01, the IC50 came to 0.0455 µM. In the case of VVLASLIYR, the IC50 in the assay with HLA-A*03:01 amounted to 0.0179 µM; with HLA-A*11:01, 0.0036 µM. In the case of VVLASLIYRR, the values for the IC50 with HLA-A*03:01 and with HLA-A*11:01 were 0.161 µM and 0.0806 µM, respectively. Turning to YMVPFIPLYR, the IC50 with HLA-A*03:01 worked out at 0.0263 µM; in the assay with HLA-A*11:01 it was 0.0385 µM.
